The record followed here is the supplement of paper PMC7877785.

± gives the uncertainty stated by the source.

This series in a line: self-splicing fitness, log relative to wild type (ln ratio); higher = more splicing; Tetrahymena group I intron in knt gene, E. coli kanamycin selection, DiMSum; sequences stand for … in CUCUCU…GGAGGGAAAAGUUAUCAGGCAUGCACCUGGUAGCUAGUCUUUAAACCAAUAGAUUGCAUCGGUUUAAAAGGCAAGACCGUCAAAUUGCGGGAAAGGGGUCAACAGCCGUUCAGUACCAAGUCUCAGGGGAAACUUUGAGAUGGCCUUGCAAAGGGUAUGGUAAUAAGCUGACGGACAUGGUCCUAACCACGCAGCCAAGUCCUAAGUCAACAGAUCUUCUGUUGAUAUGGAUGCAGUUCACAGACUAAAUGUCGGUCGGGGAAGAUGUAUUCUUCUCAUAAGAUAUAGUCGGACCUCUCCUUAAUGGGAGCUAGCGGAUGAAGUGAUGCAACACUGGAGCCGCUGGGAACUAAUUUGUAUGCGAAAGUAUAUUGAUUAGUUUUGGAGUACUCGUGGUCG
The method in brief: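 DiMSum derived fitness as the error-weighted combination of fold changes across replicates, kanamycin versus no kanamycin, normalised to wild type. E. coli BL21(DE3) held the library, which randomised all eight P1ex-region intron nucleotides within the knt kanamycin-resistance gene on pET-22b(+). Six replicate transformations grew overnight at 37°C or 30°C on LB agar with or without 25 μg/mL kanamycin, also containing 100 μg/mL carbenicillin, 50 μM IPTG and 0.2% rhamnose, and pooled colonies were amplicon-sequenced on an Illumina HiSeq 2500.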

Turning to UAUUAGCAAUAUUACGGGCC, the “self-splicing fitness (ln)” value (30 °C) was -2.84 ± 0.42. As to UAUUAGCAAUAUUACGGGGA, the “self-splicing fitness (ln)” value is, setting by setting: (30 °C) -2.39 ± 0.22; (37 °C) -0.989 ± 0.18. As for UAUUAGCAAUAUUACGGUUU, the “self-splicing fitness (ln)” value by setting is: (30 °C) -3.75 ± 0.37; (37 °C) -2.08 ± 0.2. As to UAUUAGCAAUAUUACGUAAG, the “self-splicing fitness (ln)” value by setting is: (30 °C) -2.05 ± 0.18; (37 °C) -1.41 ± 0.25. In the same order, the values of UAUUAGCAAUAUUACGUCAG are -1.84 ± 0.1 and -0.992 ± 0.12.

As to UAUUAGCAAUAUUACGUCCG, the “self-splicing fitness (ln)” value is, setting by setting: (30 °C) -0.732 ± 0.16; (37 °C) -0.925 ± 0.19. The like results for UAUUAGCAAUAUUACGUCGU were, in that order, -2.82 ± 0.28 and -3.02 ± 0.32. As to UAUUAGCAAUAUUACGUCUU, the “self-splicing fitness (ln)” value is -1.86 ± 0.14 (30 °C) and -0.681 ± 0.15 (37 °C).

Consider UCAAAGCAAUAUUACGAACA, for which the “self-splicing fitness (ln)” value by setting is: (30 °C) -1.41 ± 0.18; (37 °C) -0.524 ± 0.15. In the same order, the values of UCAAAGCAAUAUUACGACUU are -4 ± 0.23 and -2.36 ± 0.17. Take UCAAAGCAAUAUUACGAGGG: the “self-splicing fitness (ln)” value is -2.11 ± 0.12 (30 °C) and -1.03 ± 0.12 (37 °C). With UCAAAGCAAUAUUACGAGUU, the “self-splicing fitness (ln)” value (30 °C) was -4.25 ± 0.31 and the “self-splicing fitness (ln)” value (37 °C) is -2.28 ± 0.19. The like results for UCAAAGCAAUAUUACGCAGG were, in that order, -4.07 ± 0.2 and -2.2 ± 0.14.

On to UCAAAGCAAUAUUACGCCCA, for which the “self-splicing fitness (ln)” value (30 °C) is -1.32 ± 0.14 and the “self-splicing fitness (ln)” value (37 °C) was -0.49 ± 0.16. In the same order, the values of UCAAAGCAAUAUUACGCCGC are -3.89 ± 0.39 and -1.67 ± 0.42.

As for UCAAAGCAAUAUUACGCCGG, the “self-splicing fitness (ln)” value is -0.974 ± 0.13 (30 °C) and 0.015 ± 0.15 (37 °C). The like results for UCAAAGCAAUAUUACGCGUA were, in that order, -0.554 ± 0.1 and -0.355 ± 0.099.

UCAAAGCAAUAUUACGCUCC: the “self-splicing fitness (ln)” value (37 °C) was -2.37 ± 0.48. Turning to UCAAAGCAAUAUUACGGAAG, the “self-splicing fitness (ln)” value runs as follows: (30 °C) -2.03 ± 0.17; (37 °C) -2.38 ± 0.28.

As to UCAAAGCAAUAUUACGGACG, the “self-splicing fitness (ln)” value (30 °C) is -1.16 ± 0.079 and the “self-splicing fitness (ln)” value (37 °C) is -0.282 ± 0.1. As to UCAAAGCAAUAUUACGGCAG, the “self-splicing fitness (ln)” value was -1.24 ± 0.12 (30 °C) and 0.177 ± 0.16 (37 °C). The like results for UCAAAGCAAUAUUACGGCUU were, in that order, -5.11 ± 0.45 and -2.32 ± 0.2. In the case of UCAAAGCAAUAUUACGGGAA, the “self-splicing fitness (ln)” value is, setting by setting: (30 °C) -1.5 ± 0.15; (37 °C) -0.928 ± 0.16. In the same order, the values of UCAAAGCAAUAUUACGGGCA are -0.629 ± 0.063 and -0.273 ± 0.069.

In the case of UCAAAGCAAUAUUACGGGUC, the “self-splicing fitness (ln)” value is, setting by setting: (30 °C) -3.59 ± 0.23; (37 °C) -3.14 ± 0.25. In the same order, the values of UCAAAGCAAUAUUACGGUGU are -2.8 ± 0.11 and -1.31 ± 0.099.

With UCAAAGCAAUAUUACGUAGA, the “self-splicing fitness (ln)” value (30 °C) was -1.47 ± 0.082 and the “self-splicing fitness (ln)” value (37 °C) was -0.85 ± 0.098.

For the sequence UCAAAGCAAUAUUACGUAGC, the “self-splicing fitness (ln)” value was -4 ± 0.31 (30 °C) and -2.52 ± 0.27 (37 °C). The like results for UCAAAGCAAUAUUACGUCAU were, in that order, -2.36 ± 0.14 and -2.71 ± 0.2.

Take UCAAAGCAAUAUUACGUCCA: the “self-splicing fitness (ln)” value by setting is: (30 °C) -1.19 ± 0.13; (37 °C) -0.715 ± 0.13. For the sequence UCAAAGCAAUAUUACGUGAC, the “self-splicing fitness (ln)” value (30 °C) was -3.36 ± 0.12 and the “self-splicing fitness (ln)” value (37 °C) was -2.15 ± 0.16.

As for UCAAAGCAAUAUUACGUGAU, the “self-splicing fitness (ln)” value is, setting by setting: (30 °C) -3.95 ± 0.17; (37 °C) -2.64 ± 0.21. The like results for UCAAAGCAAUAUUACGUUGG were, in that order, -3.81 ± 0.18 and -3 ± 0.24.

In the case of UCAAAGCAAUAUUACGUUGU, the “self-splicing fitness (ln)” value is -3.4 ± 0.13 (30 °C) and -2.02 ± 0.12 (37 °C).

In the case of UCACAGCAAUAUUACGAACA, the “self-splicing fitness (ln)” value was -1.58 ± 0.1 (30 °C) and -1.64 ± 0.11 (37 °C). In the case of UCACAGCAAUAUUACGAACG, the “self-splicing fitness (ln)” value (30 °C) is -1.61 ± 0.18 and the “self-splicing fitness (ln)” value (37 °C) was -1.19 ± 0.21. For UCACAGCAAUAUUACGAAGA, the “self-splicing fitness (ln)” value is -1.18 ± 0.085 (30 °C) and -1.09 ± 0.093 (37 °C).

Take UCACAGCAAUAUUACGAAUC: the “self-splicing fitness (ln)” value (37 °C) was -1.26 ± 0.17.

As to UCACAGCAAUAUUACGACUA, the “self-splicing fitness (ln)” value is -1.21 ± 0.14 (30 °C) and -0.431 ± 0.12 (37 °C). In the same order, the values of UCACAGCAAUAUUACGAGUC are -2.97 ± 0.15 and -3.01 ± 0.2.

Consider UCACAGCAAUAUUACGAUCA, for which the “self-splicing fitness (ln)” value was -1.45 ± 0.091 (30 °C) and -0.503 ± 0.088 (37 °C). In the same order, the values of UCACAGCAAUAUUACGAUGA are -1.29 ± 0.1 and -0.136 ± 0.11. As for UCACAGCAAUAUUACGCGAC, the “self-splicing fitness (ln)” value by setting is: (30 °C) -3.43 ± 0.21; (37 °C) -2.51 ± 0.26. In the same order, the values of UCACAGCAAUAUUACGCGCG are -0.645 ± 0.089 and -0.233 ± 0.11. On to UCACAGCAAUAUUACGCUCA, for which the “self-splicing fitness (ln)” value by setting is: (30 °C) -1.61 ± 0.14; (37 °C) -0.171 ± 0.12. The like results for UCACAGCAAUAUUACGCUGU were, in that order, -2.88 ± 0.16 and -2.19 ± 0.24. On to UCACAGCAAUAUUACGGAUC, for which the “self-splicing fitness (ln)” value was -4.77 ± 0.46 (30 °C) and -3.11 ± 0.33 (37 °C). The like results for UCACAGCAAUAUUACGGCCA were, in that order, -1.78 ± 0.28 and -1.19 ± 0.21. Take UCACAGCAAUAUUACGGGAG: the “self-splicing fitness (ln)” value (30 °C) was -3.75 ± 0.17 and the “self-splicing fitness (ln)” value (37 °C) is -3.24 ± 0.22. As to UCACAGCAAUAUUACGGUGU, the “self-splicing fitness (ln)” value by setting is: (30 °C) -2.41 ± 0.17; (37 °C) -2.23 ± 0.14.

Take UCACAGCAAUAUUACGUAUG: the “self-splicing fitness (ln)” value is -0.949 ± 0.063 (30 °C) and -1.54 ± 0.099 (37 °C). The like results for UCACAGCAAUAUUACGUCAU were, in that order, -3.09 ± 0.17 and -1.43 ± 0.12. With UCACAGCAAUAUUACGUGCU, the “self-splicing fitness (ln)” value is, setting by setting: (30 °C) -3.75 ± 0.19; (37 °C) -2.72 ± 0.15.

Take UCACAGCAAUAUUACGUGUA: the “self-splicing fitness (ln)” value is -2.2 ± 0.089 (30 °C) and -1.09 ± 0.088 (37 °C). In the case of UCAGAGCAAUAUUACGACAA, the “self-splicing fitness (ln)” value (37 °C) was -2.96 ± 0.49.

For the sequence UCAGAGCAAUAUUACGACUC, the “self-splicing fitness (ln)” value runs as follows: (30 °C) -2.63 ± 0.22; (37 °C) -2.31 ± 0.26.

On to UCAGAGCAAUAUUACGAUCA, for which the “self-splicing fitness (ln)” value is, setting by setting: (30 °C) -3.07 ± 0.35; (37 °C) -2.6 ± 0.31. Take UCAGAGCAAUAUUACGCAGG: the “self-splicing fitness (ln)” value (37 °C) was 0.137 ± 0.42.

Turning to UCAGAGCAAUAUUACGCCUG, where the note is “30 °C”, the “self-splicing fitness (ln)” value was -3.63 ± 0.3. Turning to UCAGAGCAAUAUUACGCGUG, the “self-splicing fitness (ln)” value was -2.31 ± 0.16 (30 °C) and -2.05 ± 0.15 (37 °C). In the case of UCAGAGCAAUAUUACGCUUG, the “self-splicing fitness (ln)” value is -2.27 ± 0.14 (30 °C) and -0.868 ± 0.12 (37 °C).

In the case of UCAGAGCAAUAUUACGGAGC, the “self-splicing fitness (ln)” value runs as follows: (30 °C) -3.49 ± 0.36; (37 °C) -1.44 ± 0.36.

Regarding UCAGAGCAAUAUUACGGAGG, the “self-splicing fitness (ln)” value was -3.4 ± 0.27 (30 °C) and -2.33 ± 0.34 (37 °C). On to UCAGAGCAAUAUUACGGCAC, for which the “self-splicing fitness (ln)” value (37 °C) was -2.09 ± 0.33. Take UCAGAGCAAUAUUACGGGAG: the “self-splicing fitness (ln)” value reads like this: (30 °C) -2.82 ± 0.21; (37 °C) -2.14 ± 0.34. As to UCAGAGCAAUAUUACGGGUA, the “self-splicing fitness (ln)” value by setting is: (30 °C) -3.47 ± 0.27; (37 °C) -2.64 ± 0.31. On to UCAGAGCAAUAUUACGGUCU, for which the “self-splicing fitness (ln)” value by setting is: (30 °C) -1.95 ± 0.2; (37 °C) -2.43 ± 0.39. In the same order, the values of UCAGAGCAAUAUUACGUGCA are -2.3 ± 0.16 and -2.1 ± 0.18. In the case of UCAUAGCAAUAUUACGAAAA, under “30 °C”, the “self-splicing fitness (ln)” value is -2.62 ± 0.48. As to UCAUAGCAAUAUUACGAUAG, the “self-splicing fitness (ln)” value was -3.22 ± 0.19 (30 °C) and -1.79 ± 0.13 (37 °C). In the same order, the values of UCAUAGCAAUAUUACGAUGA are -2.65 ± 0.18 and -0.815 ± 0.11. The like results for UCAUAGCAAUAUUACGCACG were, in that order, -2.05 ± 0.11 and -0.462 ± 0.13. The like results for UCAUAGCAAUAUUACGCACU were, in that order, -3.19 ± 0.25 and -3.18 ± 0.32. Take UCAUAGCAAUAUUACGCAUC: the “self-splicing fitness (ln)” value by setting is: (30 °C) -3.59 ± 0.3; (37 °C) -3.1 ± 0.33. For UCAUAGCAAUAUUACGCAUG, the “self-splicing fitness (ln)” value reads like this: (30 °C) -4.52 ± 0.27; (37 °C) -2.77 ± 0.23. The like results for UCAUAGCAAUAUUACGCCUA were, in that order, -2.62 ± 0.34 and -1.85 ± 0.27. In the same order, the values of UCAUAGCAAUAUUACGCUGA are -2.32 ± 0.26 and -1.85 ± 0.28.
